Test results taken from patent publication US20200299400A1 (published 2020).

T1: human GITR on cells (human, UniProt Q9Y5U5 26-241)
T1 chain: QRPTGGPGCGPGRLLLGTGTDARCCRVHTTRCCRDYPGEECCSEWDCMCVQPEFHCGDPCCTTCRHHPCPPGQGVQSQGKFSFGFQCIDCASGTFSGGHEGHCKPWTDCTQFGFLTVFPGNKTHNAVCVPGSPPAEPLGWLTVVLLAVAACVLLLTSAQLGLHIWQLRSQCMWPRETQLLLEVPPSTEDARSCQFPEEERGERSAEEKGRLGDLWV


Target: T1, human GITR on cells
Assay: FACS binding to activated human CD4 T cells

EC50 [nM]	Binder
0.277	anti-GITR-IgG2 (antibody) heavy: QVQLVESGGGVVQPGRSLRLSCAASGFTFSSYGMHWVRQAPGKGLEWVAVIWYEGSNKYYADSVKGRFTISRDNSKNTLYLQMNSLRAEDTAVYYCARGGSMVRGDYYYGMDVWGQGTTVTVSSASTKGPSVFPLAPCSRSTSESTAALGCLVKDYFPEPVTVSWNSGALTSGVHTFPAVLQSSGLYSLSSVVTVPSSNFGTQTYTCNVDHKPSNTKVDKTVERKCCVECPPCPAPPVAGPSVFLFPPKPKDTLMISRTPEVTCVVVDVSHEDPEVQFNWYVDGVEVHNAKTKPREEQFNSTFRVVSVLTVVHQDWLNGKEYKCKVSNKGLPAPIEKTISKTKGQPREPQVYTLPPSREEMTKNQVSLTCLVKGFYPSDIAVEWESNGQPENNYKTTPPMLDSDGSFFLYSKLTVDKSRWQQGNVFSCSVMHEALHNHYTQKSLSLSPGK light: not shown
0.163	anti-GITR-IgG2-IgG1.1 (antibody) heavy: QVQLVESGGGVVQPGRSLRLSCAASGFTFSSYGMHWVRQAPGKGLEWVAVIWYEGSNKYYADSVKGRFTISRDNSKNTLYLQMNSLRAEDTAVYYCARGGSMVRGDYYYGMDVWGQGTTVTVSSASTKGPSVFPLAPCSRSTSESTAALGCLVKDYFPEPVTVSWNSGALTSGVHTFPAVLQSSGLYSLSSVVTVPSSNFGTQTYTCNVDHKPSNTKVDKTVERKCCVECPPCPAPPVAGPSVFLFPPKPKDTLMISRTPEVTCVVVDVSHEDPEVKFNWYVDGVEVHNAKTKPREEQYNSTYRVVSVLTVLHQDWLNGKEYKCKVSNKALPSSIEKTISKAKGQPREPQVYTLPPSREEMTKNQVSLTCLVKGFYPSDIAVEWESNGQPENNYKTTPPVLDSDGSFFLYSKLTVDKSRWQQGNVFSCSVMHEALHNHYTQKSLSLSPG light: not shown
